Test results: US20210395381A1 (OSSIANIX, published 2021)

How the values were obtained:
[1] = target: T1, recombinant mouse TfR-1 (mouse, UniProt Q62351 89-763); experiment: phage ELISA
T1 construct: Recombinant protein coated at 1 ug/ml in the phage ELISA; also called mTfR1; mouse transferrin receptor-1

[2] = target: T2, recombinant human TfR-1 (human, UniProt P02786 89-760); experiment: phage ELISA
T2 construct: Recombinant protein coated at 1 ug/ml in the phage ELISA; also called hTfR1; human transferrin receptor-1
T2 sequence (P02786 89-760 limits assumed): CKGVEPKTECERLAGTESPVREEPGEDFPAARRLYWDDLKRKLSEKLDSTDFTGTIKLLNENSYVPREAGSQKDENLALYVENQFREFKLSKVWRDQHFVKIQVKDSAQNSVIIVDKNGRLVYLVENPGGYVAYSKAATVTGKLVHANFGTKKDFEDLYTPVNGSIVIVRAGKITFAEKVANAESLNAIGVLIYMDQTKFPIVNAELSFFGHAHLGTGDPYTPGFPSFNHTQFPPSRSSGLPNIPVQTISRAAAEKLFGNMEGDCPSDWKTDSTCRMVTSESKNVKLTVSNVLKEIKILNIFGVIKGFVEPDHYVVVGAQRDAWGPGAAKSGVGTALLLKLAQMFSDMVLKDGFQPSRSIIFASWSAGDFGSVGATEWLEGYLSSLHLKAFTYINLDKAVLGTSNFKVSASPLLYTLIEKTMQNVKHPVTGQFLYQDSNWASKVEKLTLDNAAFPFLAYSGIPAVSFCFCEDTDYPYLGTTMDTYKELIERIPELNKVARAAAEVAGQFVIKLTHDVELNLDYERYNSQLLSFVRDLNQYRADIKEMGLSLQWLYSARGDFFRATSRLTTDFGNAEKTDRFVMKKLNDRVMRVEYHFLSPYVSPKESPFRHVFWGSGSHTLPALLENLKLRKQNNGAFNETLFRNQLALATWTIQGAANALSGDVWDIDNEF

T1 sequence (Q62351 89-763 limits assumed): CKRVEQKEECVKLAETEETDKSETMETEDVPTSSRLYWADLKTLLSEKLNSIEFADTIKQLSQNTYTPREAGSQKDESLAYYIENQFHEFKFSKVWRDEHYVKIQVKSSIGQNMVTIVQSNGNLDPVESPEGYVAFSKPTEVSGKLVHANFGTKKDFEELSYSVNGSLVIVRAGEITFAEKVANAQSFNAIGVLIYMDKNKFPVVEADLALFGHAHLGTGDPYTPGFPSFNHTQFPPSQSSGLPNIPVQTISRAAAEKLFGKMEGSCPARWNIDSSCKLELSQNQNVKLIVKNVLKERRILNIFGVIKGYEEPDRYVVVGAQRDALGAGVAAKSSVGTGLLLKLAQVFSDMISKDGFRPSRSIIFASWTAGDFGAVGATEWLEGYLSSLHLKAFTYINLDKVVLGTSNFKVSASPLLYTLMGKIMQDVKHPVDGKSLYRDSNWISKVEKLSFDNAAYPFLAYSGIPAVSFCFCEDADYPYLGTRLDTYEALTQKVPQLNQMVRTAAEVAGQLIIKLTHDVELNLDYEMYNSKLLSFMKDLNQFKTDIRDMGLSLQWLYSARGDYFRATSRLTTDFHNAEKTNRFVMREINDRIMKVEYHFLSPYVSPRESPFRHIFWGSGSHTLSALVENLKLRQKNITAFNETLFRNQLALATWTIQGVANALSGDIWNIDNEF

B1: Clone 8.1 (VNAR)
VNAR: ARVDQTPQTITKETGESLTINCVLRDSNCALPSTYWYRKKSGSTNEESISKGGRYVETVNSGSKSFSLRINDLTVEDSGTYRCKVLRLLSSILRGCNYRKHDVYGDGTAVTVNA
notes: VNAR on phage; Clone 8 framework
- A450 [1]: 0.312 A450
- A450 [2]: 0.371 A450

B2: Clone 8.8 (VNAR)
VNAR: ARVDQTPQTITKETGESLTINCVLRDSNCALPSTYWYRKKSGSTNEESISKGGRYVETVNSGSKSFSLRINDLTVEDSGTYRCKVFAPLSSILRGCNYRKHDVYGDGTAVTVNA
notes: as for B1
- A450 [1]: 0.118 A450
- A450 [2]: 0.103 A450

B3: Clone 8.5 (VNAR)
VNAR: ARVDQTPQTITKETGESLTINCVLRDSNCALPSTYWYRKKSGSTNEESISKGGRYVETVNSGSKSFSLRINDLTVEDSGTYRCKVIAQLGWWLRGCNYRKHDVYGDGTAVTVNA
notes: as for B1
- A450 [1]: 0.172 A450
- A450 [2]: 0.152 A450

B4: Clone 8.14 (VNAR)
VNAR: ARVDQTPQTITKETGESLTINCVLRDSNCALPSTYWYRKKSGSTNEESISKGGRYVETVNSGSKSFSLRINDLTVEDSGTYRCKVIAQLSSILGYCYYRKHDVYGDGTAVTVNA
notes: as for B1
- A450 [1]: 0.095 A450
- A450 [2]: 0.067 A450

B5: Clone 8.22 (VNAR)
VNAR: ARVDQTPQTITKETGESLTINCVLRDSNCALPSTYWYRKKSGSTNEESISKGGRYVETVNSGSKSFSLRINDLTVEDSGTYRCKVIAQQKSILRGCNYHKHDVYGDGTAVTVNA
notes: as for B1
- A450 [1]: 0.086 A450
- A450 [2]: 0.066 A450

B6: Clone 8.10 (VNAR)
VNAR: ARVDQTPQTITKETGESLTINCVLRDSNCALPSTYWYRKKSGSTNEESISKGGRYVETVNSGSKSFSLRINDLTVEDSGTYRCKVIAQLAIELRGCNYRKHDVYGDGTAVTVNA
notes: as for B1
- A450 [1]: 0.101 A450
- A450 [2]: 0.072 A450

B7: Clone 8.21 (VNAR)
VNAR: ARVDQTPQTITKETGESLTINCVLRDSNCALPSTYWYRKKSGSTNEESISKGGRYVETVNSGSKSFSLRINDLTVEDSGTYRCKVIAHLSSFRDGCNYRKHDVYGDGTAVTVNA
notes: as for B1
- A450 [1]: 0.086 A450
- A450 [2]: 0.058 A450

B8: Clone 8.12 (VNAR)
VNAR: ARVDQTPQTITKETGESLTINCVLRDSNCALPSTYWYRKKSGSTNEESISKGGRYVETVNSGSKSFSLRINDLTVEDSGTYRCKVRWRLSSILRGCNYRKHDVYGDGTAVTVNA
notes: as for B1
- A450 [1]: 0.1 A450
- A450 [2]: 0.108 A450

B9: Clone 8.7 (VNAR)
VNAR: ARVDQTPQTITKETGESLTINCVLRDSNCALPSTYWYRKKSGSTNEESISKGGRYVETVNSGSKSFSLRINDLTVEDSGTYRCKVIAQLSSILKACKYRKHDVYGDGTAVTVNA
notes: as for B1
- A450 [1]: 0.123 A450
- A450 [2]: 0.087 A450

B10: Clone 8.9 (VNAR)
VNAR: ARVDQTPQTITKETGESLTINCVLRDSNCALPSTYWYRKKSGSTNEESISKGGRYVETVNSGSKSFSLRINDLTVEDSGTYRCKVWNMLSSILRGCNYRKHDVYGDGTAVTVNA
notes: as for B1
- A450 [1]: 0.108 A450
- A450 [2]: 0.119 A450

B11: Clone 8.17 (VNAR)
VNAR: ARVDQTPQTITKETGESLTINCVLRDSNCALPSTYWYRKKSGSTNEESISKGGRYVETVNSGSKSFSLRINDLTVEDSGTYRCKVIAYRKSIVRGCNYRKHDVYGDGTAVTVNA
notes: as for B1
- A450 [2]: 0.091 A450

B12: Clone 8.97 (VNAR)
VNAR: ARVDQTPQTITKETGESLTINCVLRDSNCALPSTYWYRKKSGSTNEESISKGGRYVETVNSGSKSFSLRINDLTVEDSGTYRCKVIAQLSSILRGCNYNIDDVYGDGTAVTVNA
notes: as for B1
- A450 [2]: 0.057 A450

B13: Clone 8.16 (VNAR)
VNAR: ARVDQTPQTITKETGESLTINCVLRDSNCALPSTYWYRKKSGSTNEESISKGGRYVETVNSGSKSFSLRINDLTVEDSGTYRCKVIAKLFSILCGCNYRKHDVYGDGTAVTVNA
notes: as for B1
- A450 [1]: 0.092 A450
- A450 [2]: 0.138 A450

B14: Clone 8.19 (VNAR)
VNAR: ARVDQTPQTITKETGESLTINCVLRDSNCALPSTYWYRKKSGSTNEESISKGGRYVETVNSGSKSFSLRINDLTVEDSGTYRCKVQSQLSIVLRGCNYRKHDVYGDGTAVTVNA
notes: as for B1
- A450 [1]: 0.088 A450
- A450 [2]: 0.078 A450

B15: Clone 8.4 (VNAR)
VNAR: ARVDQTPQTITKETGESLTINCVLRDSNCALPSTYWYRKKSGSTNEESISKGGRYVETVNSGSKSFSLRINDLTVEDSGTYRCKVKLWLSSILRGCNYRKHDVYGDGTAVTVNA
notes: as for B1
- A450 [1]: 0.188 A450
- A450 [2]: 0.173 A450

B16: Clone 8.3 (VNAR)
VNAR: ARVDQTPQTITKETGESLTINCVLRDSNCALPSTYWYRKKSGSTNEESISKGGRYVETVNSGSKSFSLRINDLTVEDSGTYRCKVVRFLSSILRGCNYRKHDVYGDGTAVTVNA
notes: as for B1
- A450 [1]: 0.194 A450
- A450 [2]: 0.27 A450

B17: Clone 8.20 (VNAR)
VNAR: ARVDQTPQTITKETGESLTINCVLRDSNCALPSTYWYRKKSGSTNEESISKGGRYVETVNSGSKSFSLRINDLTVEDSGTYRCKVIAQLSSILRGCLDKKHDVYGDGTAVTVNA
notes: as for B1
- A450 [1]: 0.087 A450
- A450 [2]: 0.084 A450

B18: Clone 8.137 (VNAR)
VNAR: ARVDQTPQTITKETGESLTINCVLRDSNCALPSTYWYRKKSGSTNEESISKGGRYVETVNSGSKSFSLRINDLTVEDSGTYRCKVIAQLSSILRGCNYFGKDVYGDGTAVTVNA
notes: as for B1
- A450 [2]: 0.076 A450

B19: Clone 8.11 (VNAR)
VNAR: ARVDQTPQTITKETGESLTINCVLRDSNCALPSTYWYRKKSGSTNEESISKGGRYVETVNSGSKSFSLRINDLTVEDSGTYRCKVIAQLSSIYPGCNYRKHDVYGDGTAVTVNA
notes: as for B1
- A450 [1]: 0.101 A450
- A450 [2]: 0.066 A450

B20: Clone 8.13 (VNAR)
VNAR: ARVDQTPQTITKETGESLTINCVLRDSNCALPSTYWYRKKSGSTNEESISKGGRYVETVNSGSKSFSLRINDLTVEDSGTYRCKVIAQLALALRGCNYRKHDVYGDGTAVTVNA
notes: as for B1
- A450 [1]: 0.096 A450
- A450 [2]: 0.075 A450

B21: Clone 8.2 (VNAR)
VNAR: ARVDQTPQTITKETGESLTINCVLRDSNCALPSTYWYRKKSGSTNEESISKGGRYVETVNSGSKSFSLRINDLTVEDSGTYRCKVLFNLSSILRGCNYRKHDVYGDGTAVTVNA
notes: as for B1
- A450 [1]: 0.242 A450
- A450 [2]: 0.315 A450

B22: Clone 8.6 (VNAR)
VNAR: ARVDQTPQTITKETGESLTINCVLRDSNCALPSTYWYRKKSGSTNEESISKGGRYVETVNSGSKSFSLRINDLTVEDSGTYRCKVIAQWWSILRGCNYRKHDVYGDGTAVTVNA
notes: as for B1
- A450 [1]: 0.164 A450
- A450 [2]: 0.199 A450

B23: Clone 8.18 (VNAR)
VNAR: ARVDQTPQTITKETGESLTINCVLRDSNCALPSTYWYRKKSGSTNEESISKGGRYVETVNSGSKSFSLRINDLTVEDSGTYRCKVIAQLSSKYVGCNYRKHDVYGDGTAVTVNA
notes: as for B1
- A450 [1]: 0.09 A450
- A450 [2]: 0.06 A450

B24: Clone 8.15 (VNAR)
VNAR: ARVDQTPQTITKETGESLTINCVLRDSNCALPSTYWYRKKSGSTNEESISKGGRYVETVNSGSKSFSLRINDLTVEDSGTYRCKVMWNLSSILRGCNYRKHDVYGDGTAVTVNA
notes: as for B1
- A450 [1]: 0.095 A450
- A450 [2]: 0.095 A450
